The values that follow come from US20220289857A1 (Kyowa Kirin, published 2022).

Several values for one entry are separate records, joined by “and”; a condition that tells them apart may be missing. Equal entries are not always repeated.

Experiment [1] concerns the target T1, His-SUMO-huFn14 (soluble human Fn14 aa 28-75 with N-terminal 6xHis-SUMO tag) (human).
T1 construct: also called His-SUMO-Fn14; His-SUMO-hFn14
The experiment in a line: SPR single-cycle kinetics; mAb captured by anti-human Fc, His-Sumo-Fn14 analyte; 1:1 fit. As to the method: (§1) Alternatively, using a method referred to as “single cycle kinetics,” the His-Sumo-Fn14 was injected with increasing concentrations in a single cycle, the surface not being regenerated between injections. Specifically, anti-human Fc specific antibodies were immobilized on a CM5 sensor chip (cat# BR100012, GE Healthcare Life Sciences, Pittsburgh, Pennsylvania) by an amine coupling chemistry. Thereafter, humanized anti-Fn14 antibodies were captured at approximately 200 RUs, followed by injections of increasing concentrations of recombinant human His-Sumo-Fn14 protein. The association time was 120 seconds, and the final dissociation time was 900 seconds. At the end of the analyte injections, the surface was regenerated with 3M MgCl₂ for 30s. The raw data were double referenced by subtraction of the signals from a reference flow cell without immobilized ligand and a buffer blank. The sensorgram corresponding to each concentration was obtained (see FIG. 6B).

In experiment [2] the target is T1, His-SUMO-huFn14 (soluble human Fn14 aa …). The experiment in a line: SPR single-cycle kinetics; mAb captured by anti-human Fc, His-Sumo-Fn14 analyte; average of three runs. As to the method:
as §1

The target of experiment [3] is T2, human Fn14 (full length) on cells (human, UniProt Q9NP84 28-129).
T2 construct: Transfected 293F cells, or endogenous on HK2, HRMC, A375, HaCaT, primary keratinocytes and dermal fibroblasts; also called hFn14; TNFRSF12A
T2 sequence: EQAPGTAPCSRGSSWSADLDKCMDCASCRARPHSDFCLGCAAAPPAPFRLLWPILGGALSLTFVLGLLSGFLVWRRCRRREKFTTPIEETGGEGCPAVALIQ
Nature of the experiment: flow cytometry blocking assay on HRMC: antibody for 30 min, then recombinant human TWEAK at 250 ng/mL for 45 min; bound TWEAK detected with biotinylated goat anti-human TWEAK and streptavidin-PE; blocked ligand: TWEAK. As to the method: FIG. 25 depicts that humanized anti-Fn14 antibodies blocked TWEAK binding to Fn14 expressed on cells. HRMC were incubated with individual antibodies at various concentrations for 30 minutes followed by incubation with recombinant human TWEAK (250 ng/mL) for 45 minutes. Binding of TWEAK to HRMC cells was detected with biotinylated goat-anti-human TWEAK followed by streptavidin-PE. Stained cells were acquired on a Fortessa. % TWEAK blocking was calculated using the following formula: 100-(Geometric mean fluorescence intensity of sample—Geometric mean fluorescence intensity of cells without TWEAK)/(Geometric mean fluorescence intensity-TWEAK alone with no antibody—Geometric mean fluorescence intensity of cells without TWEAK)*100.
HRMC cells were incubated with individual antibodies at various concentrations (0.015625-1 ng/mL) for 30 minutes at room temperature. Recombinant human TWEAK (R&D Systems, Cat# 1090-TW/CF) was then added to the cells and incubated for 45 minutes at room temperature. Binding of TWEAK to HRMC cells was detected with a biotinylated goat-anti-human TWEAK (R&D Systems, Cat# BAF1090) followed by streptavidin-PE (Biolegend, Cat# 405204). Stained cells were acquired on a Fortessa. % TWEAK blocking was calculated using the following formula: 100-(Geometric mean fluorescence intensity of sample—Geometric mean fluorescence intensity of cells without TWEAK)/(Geometric mean fluorescence intensity—TWEAK alone with no antibody—Geometric mean fluorescence intensity of cells without TWEAK)*100.

The target of experiment [4] is T2, human Fn14 (full length) on cells. The experiment in a line: cell-based or functional assay.
The target in experiment [5] is T1, His-SUMO-huFn14 (soluble human Fn14 aa …). The experiment in a line: SPR Biacore; His-Sumo-huFn14 0.111-9 nM. (In general: Surface plasmon resonance follows binding to a sensor surface in real time, without labels.)

T1 sequence (chain, as listed by the source limits assumed): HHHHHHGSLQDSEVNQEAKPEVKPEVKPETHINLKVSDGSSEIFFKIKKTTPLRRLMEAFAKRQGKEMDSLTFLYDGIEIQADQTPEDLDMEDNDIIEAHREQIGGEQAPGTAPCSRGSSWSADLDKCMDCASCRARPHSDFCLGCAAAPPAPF

B1: A641/A468 humanized IgG4 Nullbody, kappa antibody (antibody)
heavy: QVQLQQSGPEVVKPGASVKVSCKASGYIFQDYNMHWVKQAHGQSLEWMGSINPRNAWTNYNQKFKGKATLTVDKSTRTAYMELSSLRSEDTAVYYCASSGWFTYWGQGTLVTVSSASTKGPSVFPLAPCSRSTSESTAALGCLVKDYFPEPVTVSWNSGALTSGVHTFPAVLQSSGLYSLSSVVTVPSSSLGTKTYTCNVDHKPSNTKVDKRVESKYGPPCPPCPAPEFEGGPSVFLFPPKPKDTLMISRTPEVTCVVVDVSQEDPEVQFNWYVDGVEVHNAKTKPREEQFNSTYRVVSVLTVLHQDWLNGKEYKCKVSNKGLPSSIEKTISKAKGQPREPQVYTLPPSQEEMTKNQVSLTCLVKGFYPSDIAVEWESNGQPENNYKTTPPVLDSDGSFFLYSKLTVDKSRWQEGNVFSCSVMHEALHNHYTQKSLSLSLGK
light: DVVMTQSPLSLPVTLGQPASISCKSSQSLLNSAGKTYLNWLQQRPGQSPRRLIYLVSQLDSGVPDRFSGSGSGTDFTLKISRVEAEDVGVYYCWQGTFYPWTFGGGTKVEIKRTVAAPSVFIFPPSDEQLKSGTASVVCLLNNFYPREAKVQWKVDNALQSGNSQESVTEQDSKDSTYSLSSTLTLSKADYEKHKVYACEVTHQGLSSPVTKSFNRGEC
A word on the Kd: it is the concentration at which binding is half-saturated. Usually koff stands for the rate constant with which the complex falls apart. In general, kon refers to a measure of how fast the partners come together. On to B1, for which, in experiment [1], the Kd is 262 pM and 249 pM and 257 pM; the off-rate constant (koff) is 0.000756 s⁻¹ and 0.000773 s⁻¹ and 0.000764 s⁻¹; the kon was 2.89e+06 M⁻¹ s⁻¹ and 3.11e+06 M⁻¹ s⁻¹ and 2.97e+06 M⁻¹ s⁻¹. Further, binding in experiment [2] was characterised by a dissociation constant (Kd) of 256 pM.

B2: chimeric R35B9 (antibody, human IgG4 S228P, kappa)
heavy chain: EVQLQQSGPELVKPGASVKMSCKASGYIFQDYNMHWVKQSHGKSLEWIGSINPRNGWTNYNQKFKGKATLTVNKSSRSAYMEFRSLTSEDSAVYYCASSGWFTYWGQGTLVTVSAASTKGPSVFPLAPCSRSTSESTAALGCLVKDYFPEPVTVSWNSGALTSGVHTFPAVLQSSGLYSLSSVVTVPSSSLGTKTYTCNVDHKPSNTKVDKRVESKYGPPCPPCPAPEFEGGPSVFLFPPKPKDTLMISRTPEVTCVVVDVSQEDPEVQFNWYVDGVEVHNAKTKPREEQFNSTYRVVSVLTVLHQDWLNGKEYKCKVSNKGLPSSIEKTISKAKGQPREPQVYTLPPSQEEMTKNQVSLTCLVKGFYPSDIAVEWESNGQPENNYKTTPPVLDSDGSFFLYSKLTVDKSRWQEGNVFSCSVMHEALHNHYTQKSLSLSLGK
light chain: DVVMTQTPLTLSVAIGQPASISCKSSQSLLNSAGKTYLNWLLQRPGQSPKRLIYLVSQLDSGVPDRFTGSGSGTDFTLKISRVEAEDLGVYYCWQGTFYPWTFGGGTKLEIKRTVAAPSVFIFPPSDEQLKSGTASVVCLLNNFYPREAKVQWKVDNALQSGNSQESVTEQDSKDSTYSLSSTLTLSKADYEKHKVYACEVTHQGLSSPVTKSFNRGEC
notes: It may be the same molecule as m27, R35B9 (A451/A452), but neither the sheet nor the text says so; also called mouse-human chimeric R35B9
On to B2, for which the “IC50 (read off the curve)” value in experiment [3] is about 0.2 µg/mL.

B3: A515/A518 humanized IgG4 Nullbody, kappa antibody (antibody, V domains shown)
VH: QVQLVQSGAEVVKPGASVKVSCKASGYIFQDYNMHWVRQAHGQGLEWMGYINPRNAGTNYNQKFKGRVTITADKSTRTAYMELSSLRSEDTAVYYCASSGWFTYWGQGTLVTVSS
VL: DVVMTQSPLSLPVTLGQPASISCKSSQSLLNSAGKTYLNWLQQRPGQSPRRLIYLVSQLDSGVPDRFSGSGSGTDFTLKISRVEAEDVGVYYCWQGTHYPWTFGGGTKVEIKR
notes: also called hzR35B9(Y50A56G57)-HV7b / hzR35B9(H98)-LV1a
Consider B3, for which, in experiment [1], the dissociation constant Kd is 461 pM and 473 pM and 477 pM; the koff is 0.00144 s⁻¹ and 0.00154 s⁻¹ and 0.0015 s⁻¹; the kon is 3.2e+06 M⁻¹ s⁻¹ (2×) and 3.1e+06 M⁻¹ s⁻¹. Also, the Kd in experiment [2] was 470 pM. Further, the binding result in experiment [3] is on record as “binds”.

B4: A650/A468 humanized IgG4 Nullbody, kappa antibody (antibody)
heavy: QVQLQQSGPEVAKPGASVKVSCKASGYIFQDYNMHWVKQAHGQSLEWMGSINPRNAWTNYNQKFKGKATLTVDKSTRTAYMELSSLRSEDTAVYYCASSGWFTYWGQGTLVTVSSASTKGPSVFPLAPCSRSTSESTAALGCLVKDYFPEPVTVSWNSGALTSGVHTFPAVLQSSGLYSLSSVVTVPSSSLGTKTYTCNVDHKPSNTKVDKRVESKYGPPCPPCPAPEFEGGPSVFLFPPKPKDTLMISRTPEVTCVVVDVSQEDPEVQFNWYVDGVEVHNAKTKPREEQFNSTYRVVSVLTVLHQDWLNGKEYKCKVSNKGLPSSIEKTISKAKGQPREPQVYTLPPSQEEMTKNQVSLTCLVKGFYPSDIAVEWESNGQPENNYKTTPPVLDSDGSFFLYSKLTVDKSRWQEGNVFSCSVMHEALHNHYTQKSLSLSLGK
light: DVVMTQSPLSLPVTLGQPASISCKSSQSLLNSAGKTYLNWLQQRPGQSPRRLIYLVSQLDSGVPDRFSGSGSGTDFTLKISRVEAEDVGVYYCWQGTFYPWTFGGGTKVEIKRTVAAPSVFIFPPSDEQLKSGTASVVCLLNNFYPREAKVQWKVDNALQSGNSQESVTEQDSKDSTYSLSSTLTLSKADYEKHKVYACEVTHQGLSSPVTKSFNRGEC
Consider B4, for which, in experiment [1], the equilibrium dissociation constant (Kd) is 264 pM and 287 pM and 282 pM; the koff was 0.000871 s⁻¹ and 0.000843 s⁻¹ and 0.000825 s⁻¹; the kon was 3.3e+06 M⁻¹ s⁻¹ and 2.9e+06 M⁻¹ s⁻¹ (2×). Further, the Kd in experiment [2] worked out at 278 pM.

B5: A648/A468 humanized IgG4 Nullbody, kappa antibody (antibody, V domains shown)
VH: QVQLQQSGPEVVKPGASVKVSCKASGYIFQDYNMHWVKQAHGQSLEWMGSINPRNAWTNYNDKFKGKATLTVDKSTRTAYMELSSLRSEDTAVYYCASSGWFTYWGQGTLVTVSS
VL: DVVMTQSPLSLPVTLGQPASISCKSSQSLLNSAGKTYLNWLQQRPGQSPRRLIYLVSQLDSGVPDRFSGSGSGTDFTLKISRVEAEDVGVYYCWQGTFYPWTFGGGTKVEIKR
Take B5: in experiment [1], the Kd was 0.191 nM and 0.237 nM (2×); the koff was 0.000531 s⁻¹ and 0.000756 s⁻¹ and 0.000742 s⁻¹; the kon was 2.78e+06 M⁻¹ s⁻¹ and 3.19e+06 M⁻¹ s⁻¹ and 3.13e+06 M⁻¹ s⁻¹. The same molecule came in with a Kd in experiment [2] of 222 pM.

B6: A512/A468 humanized IgG4 Nullbody, kappa antibody (antibody, V domains shown)
VH: QVQLVQSGPEVVKPGASVKVSCKASGYIFQDYNMHWVRQAHGQSLEWMGSINPRNAWTNYNQKFKGRATITVDKSTRTAYMELSSLRSEDTAVYYCASSGWFTYWGQGTLVTVSS
VL: DVVMTQSPLSLPVTLGQPASISCKSSQSLLNSAGKTYLNWLQQRPGQSPRRLIYLVSQLDSGVPDRFSGSGSGTDFTLKISRVEAEDVGVYYCWQGTFYPWTFGGGTKVEIKR
notes: Human IgG4null constant (S228P, L235E, R409K); also called hzR35B9(A56)-HV11 / hzR35B9-LV1a
Regarding B6, in experiment [1], the Kd is 226 pM and 194 pM and 197 pM; the koff was 0.000679 s⁻¹ and 0.000664 s⁻¹ and 0.000652 s⁻¹; the kon was 3e+06 M⁻¹ s⁻¹ and 3.43e+06 M⁻¹ s⁻¹ and 3.31e+06 M⁻¹ s⁻¹. In experiment [2], this molecule came in with a Kd of 206 pM. For the same molecule, in experiment [3], the “IC50 (read off the curve)” value was about 0.3 µg/mL.

B7: A553/A472 humanized IgG4 Nullbody, kappa antibody (antibody, V domains shown)
VH: QVQLVQSGAEVKKPGASVKVSCKASGYIFQDYNMHWVKQAPGQGLEWIGSINPRNAWTNYNQKFKGKATITADTSTSTAYMELSSLRSEDTAVYYCASSGWFTYWGQGTLVTVSS
VL: DVVMTQSPLSLPVTIGQPASISCKSSQSLLNSAGKTYLNWLLQRPGQSPKRLIYLVSQLDSGVPDRFSGSGSGTDFTLKISRVEAEDVGVYYCWQGTFYPWTFGGGTKVEIKR
notes: also called hzR35B9(A56)-HV7c / hzR35B9-LV4
Turning to B7, in experiment [1], the Kd was 374 pM and 347 pM and 354 pM; the koff was 0.000804 s⁻¹ and 0.000812 s⁻¹ and 0.000799 s⁻¹; the kon is 2.2e+06 M⁻¹ s⁻¹ and 2.3e+06 M⁻¹ s⁻¹ (2×). Moreover, the Kd in experiment [2] was found to be 358 pM. The binding result in experiment [3] was “binds”.

B8: A437/A290 mouse IgG1(D265A), kappa antibody (antibody, V domains shown)
VH: EVQLQQSGPELVKPGASVKMSCKASGYIFQDYNMHWVKQSHGKSLEWIGYINPRNGWTNYNQKFKGKATLTVNKSSRSAYMEFRSLTSEDSAVYYCASSGWFTYWGQGTLVTVSA
VL: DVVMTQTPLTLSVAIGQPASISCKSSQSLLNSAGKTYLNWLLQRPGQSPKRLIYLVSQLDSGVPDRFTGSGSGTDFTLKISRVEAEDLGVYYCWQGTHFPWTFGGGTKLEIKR
On to B8, for which, in experiment [4], the “ICAM-1 MFI on HRMC, 250 ng/mL rhTWEAK, mAb 0.1 µg/mL” value (“ICAM-1 MFI on HRMC” below) was 5110 MFI.

B9: A448/A439 mouse IgG1(D265A), kappa antibody (antibody, V domains shown)
VH: EVQLQQSGPELVKPGASVKMSCKASGYIFQDYNMHWVKQSHGKSLEWIGYINPRNGGTNYNQKFKGKATLTVNKSSRSAYMEFRSLTSEDSAVYYCASSGWFTYWGQGTLVTVSA
VL: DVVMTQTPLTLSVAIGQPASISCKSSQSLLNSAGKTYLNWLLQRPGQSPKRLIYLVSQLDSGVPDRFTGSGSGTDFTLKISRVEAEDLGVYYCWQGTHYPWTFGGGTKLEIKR
For the molecule B9, in experiment [4], the “ICAM-1 MFI on HRMC” value amounted to 5480 MFI.

B10: A448/A290 mouse IgG1(D265A), kappa antibody (antibody, V domains shown)
VH: EVQLQQSGPELVKPGASVKMSCKASGYIFQDYNMHWVKQSHGKSLEWIGYINPRNGGTNYNQKFKGKATLTVNKSSRSAYMEFRSLTSEDSAVYYCASSGWFTYWGQGTLVTVSA
VL: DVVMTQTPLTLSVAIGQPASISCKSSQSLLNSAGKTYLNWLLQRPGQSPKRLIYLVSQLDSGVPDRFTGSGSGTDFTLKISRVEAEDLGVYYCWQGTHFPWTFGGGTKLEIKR
As to B10, the “ICAM-1 MFI on HRMC” value in experiment [4] is 6430 MFI.

B11: R35B9 (A451/A452) antibody (antibody, V domains shown)
VH: EVQLQQSGPELVKPGASVKMSCKASGYIFQDYNMHWVKQSHGKSLEWIGSINPRNGWTNYNQKFKGKATLTVNKSSRSAYMEFRSLTSEDSAVYYCASSGWFTYWGQGTLVTVSA
VL: not shown
In experiment [5], B11 returned a Kd of 132 pM, a koff of 0.000994 s⁻¹ and a kon of 7.52e+06 M⁻¹ s⁻¹.

B12: R35B9(A56) (A486/A452) antibody (antibody, V domains shown)
VH: EVQLQQSGPELVKPGASVKMSCKASGYIFQDYNMHWVKQSHGKSLEWIGSINPRNAWTNYNQKFKGKATLTVNKSSRSAYMEFRSLTSEDSAVYYCASSGWFTYWGQGTLVTVSA
VL: not shown
notes: G56A in HCDR2 removes the NG deamidation site; Constant regions not clear
For the molecule B12, in experiment [5], the equilibrium dissociation constant (Kd) worked out at 71.4 pM, the koff stood at 0.000354 s⁻¹ and the kon came out at 4.96e+06 M⁻¹ s⁻¹.

B13: CRCBT-06-002 as mouse IgG1(D265A), kappa antibody (antibody, V domains shown)
VH: EVKLQQSGGGLVQPGGSMKLSCVASGFTFSYYWMNWVRQSPEQGLEWIAEIRLQSNDYPTHYAESVKGRFTISRDDSKNSVYLQMNNLRPEDTGIYYCACRYADYFDHWGQGTTLTVSS
VL: DTVLTQSPASLVVSLGQRATISCRASQSVSTSDYSYIHWYQQKPGQPPKFLIKYASNRDSGVPARFSGSGSGTDFTLNIHPVEEDDTAIYYCQHSWEIPPTFGAGTKLELQR
Consider B13, for which the “ICAM-1 MFI on HRMC” value in experiment [4] stood at 11800 MFI.
